Laboratory results taken from patent publication US5854388A, “Angiotensin IV peptides and receptor” (Washington State University Research Foundation, priority 1994, dated 1998).

Key:
AT4 receptor [1] = biological target: T1, AT4 receptor (Bos taurus, UniProt F1N1Q8); test: 125I-AIV binding and competition, bovine adrenal cortical membranes; details: read-out: 125I-AIV Binding (Ki); competition
T1 sequence (F1N1Q8 1-1022): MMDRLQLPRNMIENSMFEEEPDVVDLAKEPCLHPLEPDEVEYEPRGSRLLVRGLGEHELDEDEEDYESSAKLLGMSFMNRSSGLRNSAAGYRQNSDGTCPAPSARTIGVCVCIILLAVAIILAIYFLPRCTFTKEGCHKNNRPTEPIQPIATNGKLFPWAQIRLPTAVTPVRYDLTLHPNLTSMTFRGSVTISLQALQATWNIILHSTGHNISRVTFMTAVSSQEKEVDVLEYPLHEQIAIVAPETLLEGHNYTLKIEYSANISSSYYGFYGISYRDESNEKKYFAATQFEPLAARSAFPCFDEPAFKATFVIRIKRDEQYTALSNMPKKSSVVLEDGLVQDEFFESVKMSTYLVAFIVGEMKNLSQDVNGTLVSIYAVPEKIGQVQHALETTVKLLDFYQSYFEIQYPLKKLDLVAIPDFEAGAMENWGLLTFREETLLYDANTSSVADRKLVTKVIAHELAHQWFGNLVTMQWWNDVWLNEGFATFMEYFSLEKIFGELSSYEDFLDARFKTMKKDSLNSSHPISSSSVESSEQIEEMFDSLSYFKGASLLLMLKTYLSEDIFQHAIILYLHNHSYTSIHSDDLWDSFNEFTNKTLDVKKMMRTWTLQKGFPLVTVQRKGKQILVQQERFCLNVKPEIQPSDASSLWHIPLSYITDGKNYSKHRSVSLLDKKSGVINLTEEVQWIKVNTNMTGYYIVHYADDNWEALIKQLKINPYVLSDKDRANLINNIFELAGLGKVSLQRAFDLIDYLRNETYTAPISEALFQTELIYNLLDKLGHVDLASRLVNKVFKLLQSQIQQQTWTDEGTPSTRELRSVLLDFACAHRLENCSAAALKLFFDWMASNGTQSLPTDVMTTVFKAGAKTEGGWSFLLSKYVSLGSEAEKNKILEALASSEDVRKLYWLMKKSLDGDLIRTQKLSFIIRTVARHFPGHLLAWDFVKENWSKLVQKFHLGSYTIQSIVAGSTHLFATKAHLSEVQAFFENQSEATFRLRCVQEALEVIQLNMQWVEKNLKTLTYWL

[2] = biological target: T2, AT1 receptor (AII receptor) (Bos taurus, UniProt P25104); format: binding, bovine; details: 37° C., 2 h, HPLC
T2 construct: from tissue; host or cells: bovine adrenal cortex membranes
T2 sequence (P25104 1-359): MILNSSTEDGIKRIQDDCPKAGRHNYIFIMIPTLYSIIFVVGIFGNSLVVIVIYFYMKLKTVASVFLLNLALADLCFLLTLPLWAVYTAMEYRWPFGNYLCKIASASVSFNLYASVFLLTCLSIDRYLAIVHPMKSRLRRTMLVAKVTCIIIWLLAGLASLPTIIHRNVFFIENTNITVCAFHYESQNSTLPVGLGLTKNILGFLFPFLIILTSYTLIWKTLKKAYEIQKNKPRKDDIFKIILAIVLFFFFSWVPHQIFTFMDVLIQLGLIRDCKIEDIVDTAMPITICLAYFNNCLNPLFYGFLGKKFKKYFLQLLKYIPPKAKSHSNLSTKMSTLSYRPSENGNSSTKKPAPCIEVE

AT4 receptor [3] = biological target: T1, AT4 receptor; test: 125I-AIV binding and competition, coronary venular endothelial cell (CVEC) membranes; set-up: species or system bovine; details: competition of 0.5 nM 125I-AIV; read-out: Ki
AT4 receptor [4] = biological target: T3, AT4 receptor (Cavia porcellus, UniProt H0VNM7); test: 125I-AIV binding and competition, guinea pig hippocampus membranes; details: competition of 0.6 nM 125I-AIV
T3 sequence (H0VNM7 1-1025): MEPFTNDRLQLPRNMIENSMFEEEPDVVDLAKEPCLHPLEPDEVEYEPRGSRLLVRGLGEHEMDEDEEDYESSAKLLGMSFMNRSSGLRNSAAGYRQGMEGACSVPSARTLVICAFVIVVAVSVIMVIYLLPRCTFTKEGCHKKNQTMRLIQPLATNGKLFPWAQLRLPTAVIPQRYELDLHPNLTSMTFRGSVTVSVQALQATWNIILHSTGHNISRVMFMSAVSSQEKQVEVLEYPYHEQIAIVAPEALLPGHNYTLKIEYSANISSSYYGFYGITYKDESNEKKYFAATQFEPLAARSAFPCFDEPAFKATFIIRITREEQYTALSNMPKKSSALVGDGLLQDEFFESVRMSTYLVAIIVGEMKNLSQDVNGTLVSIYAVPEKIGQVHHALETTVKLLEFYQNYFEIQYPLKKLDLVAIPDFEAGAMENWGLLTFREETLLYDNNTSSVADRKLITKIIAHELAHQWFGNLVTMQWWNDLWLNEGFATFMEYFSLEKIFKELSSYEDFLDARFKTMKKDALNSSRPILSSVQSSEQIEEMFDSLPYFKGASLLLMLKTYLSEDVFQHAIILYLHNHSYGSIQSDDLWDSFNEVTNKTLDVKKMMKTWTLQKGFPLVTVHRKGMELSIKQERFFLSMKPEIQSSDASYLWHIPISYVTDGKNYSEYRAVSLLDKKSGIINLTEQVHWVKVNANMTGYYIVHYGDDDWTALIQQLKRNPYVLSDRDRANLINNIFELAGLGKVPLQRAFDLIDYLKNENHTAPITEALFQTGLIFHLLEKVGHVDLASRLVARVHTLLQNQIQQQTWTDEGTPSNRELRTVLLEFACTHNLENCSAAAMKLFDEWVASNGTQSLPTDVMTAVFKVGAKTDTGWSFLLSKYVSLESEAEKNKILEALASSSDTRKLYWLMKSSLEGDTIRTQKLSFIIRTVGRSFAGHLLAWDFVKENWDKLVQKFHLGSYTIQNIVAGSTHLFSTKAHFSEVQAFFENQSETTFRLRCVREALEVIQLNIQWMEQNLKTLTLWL

rat kidney = test: Renal cortical blood flow (laser doppler) and arterial pressure after infusion into the renal artery; format: in vivo; details: infusion into renal artery

## Asp1 Arg2 Val3 Tyr4 Ile5 His6 Pro7 Phe8 (DRVYIHPF) [AII]
AT4 receptor [1]
  Ki: > 1000 nM
[2]
  overall hydrolysis under conditions of the assay: less than 2%
AT4 receptor [3]
  Ki: 194 ± 44.5 nM
AT4 receptor [4]
  Ki: > 1000 nM
Rat kidney
  effect on renal blood flow (in words): dramatic decrease in renal blood flow
